Test results taken from the Human Domainome abundance scans (Beltran et al. 2025).
± gives the uncertainty stated by the source.

B1: Ventral anterior homeobox 1, residues 102 to 157; numbered along this chain, Q5SQQ9 (parent)
chain: RTRTSFTAEQLYRLEMEFQRCQYVVGRERTELARQLNLSETQVKVWFQNRRTKQKK

Variants of: B1
Experiment: abundance fitness (aPCA) (normalised: wild type 0, dead -1); higher = more abundant; growth selection in yeast, the domain comes from the species named
Settings: Homo sapiens

Variant | abundance fitness
V25K | -0.18 ± 0.16
V25H | -0.011 ± 0.29
V25I | -0.226 ± 0.2
V25N | -0.326 ± 0.42
V25G | 0.003 ± 0.11
V25Y | -0.377 ± 0.29
V25F | -0.073 ± 0.22
V25E | 0.204 ± 0.17
C21Q | -0.37 ± 0.27
C21E | -0.101 ± 0.2
C21Y | -0.404 ± 0.28
C21K | -0.169 ± 0.31
C21W | -0.635 ± 0.33
C21A | -0.166 ± 0.31
C21T | -0.019 ± 0.35
C21L | -0.377 ± 0.17
C21G | -0.16 ± 0.2
C21R | -0.229 ± 0.17
C21F | -0.21 ± 0.41
C21P | -0.231 ± 0.41
C21V | -0.054 ± 0.17
C21S | -0.013 ± 0.17
C21M | -0.434 ± 0.27
C21D | 0.16 ± 0.47

Variant | abundance fitness
C21H | -0.215 ± 0.35
V24S | -0.09 ± 0.14
V24F | -0.408 ± 0.32
V24Q | -0.559 ± 0.24
V24I | -0.086 ± 0.15
V24T | -0.074 ± 0.19
V24H | -0.307 ± 0.24
V24P | -0.167 ± 0.21
V24Y | -0.421 ± 0.25
V24M | -0.16 ± 0.18
V24L | 0.059 ± 0.14
V24C | 0.12 ± 0.21
V24G | -0.436 ± 0.14
V24W | -0.416 ± 0.24
V24N | -0.25 ± 0.32
V24E | -0.367 ± 0.22
V24R | -0.243 ± 0.13
V24D | -0.347 ± 0.31
V24A | -0.12 ± 0.14
R20W | -0.632 ± 0.28
R20Y | -0.436 ± 0.29
R20S | -0.04 ± 0.14
R20T | -0.305 ± 0.24
R20Q | -0.226 ± 0.2

Variant | abundance fitness
R20N | 0.251 ± 0.29
R20V | -0.162 ± 0.12
T41P | -0.152 ± 0.16
T41N | -0.127 ± 0.35
T41E | 0.106 ± 0.13
T41K | -0.381 ± 0.18
T41F | -0.129 ± 0.19
T41S | 0.006 ± 0.12
T41L | 0.024 ± 0.11
T41I | -0.5 ± 0.3
T41V | -0.104 ± 0.1
T41G | 0.03 ± 0.096
T41M | 0.095 ± 0.16
T41R | -0.336 ± 0.1
T41D | 0.105 ± 0.18
T41A | 0.032 ± 0.12
T41H | -0.027 ± 0.19
T41C | 0.164 ± 0.17
T41Q | 0.227 ± 0.19
L38F | -0.72 ± 0.39
L38C | -0.186 ± 0.16
L38Q | -0.91 ± 0.2
L38V | 0.027 ± 0.094
L38H | -0.854 ± 0.43

Variant | abundance fitness
L38S | -0.321 ± 0.14
L38D | -0.818 ± 0.24
L38W | -0.861 ± 0.17
L38K | -0.773 ± 0.24
L38R | -0.576 ± 0.11
L38G | -0.822 ± 0.11
L38T | -0.411 ± 0.16
L38I | -0.307 ± 0.33
L38P | -1.02 ± 0.25
L38M | -0.112 ± 0.15
L38A | -0.253 ± 0.11
G26F | -0.278 ± 0.12
G26S | -0.151 ± 0.083
G26P | -0.208 ± 0.11
G26V | -0.577 ± 0.13
G26D | -0.153 ± 0.12
G26C | -0.547 ± 0.15
G26E | -0.249 ± 0.24
G26A | -0.155 ± 0.1
G26I | -0.63 ± 0.12
G26N | -0.318 ± 0.13
G26K | -0.15 ± 0.22
G26M | -0.351 ± 0.17
G26T | -0.453 ± 0.11

Variant | abundance fitness
G26L | -0.297 ± 0.094
G26Y | -0.342 ± 0.11
G26Q | -0.23 ± 0.19
G26W | -0.892 ± 0.3
G26H | -0.413 ± 0.12
T30A | -0.102 ± 0.16
T30R | -0.429 ± 0.16
T30H | -0.261 ± 0.34
T30D | -0.468 ± 0.36
T30P | -0.677 ± 0.3
T30W | -0.117 ± 0.32
T30Q | -0.329 ± 0.39
T30L | -0.427 ± 0.15
T30M | -0.225 ± 0.3
T30N | -0.097 ± 0.34
T30E | 0.018 ± 0.23
T30G | -0.215 ± 0.14
T30K | -0.19 ± 0.37
T30V | -0.064 ± 0.16
T30I | -0.211 ± 0.21
L36E | -0.983 ± 0.26
L36F | -0.741 ± 0.21
L36K | -1.18 ± 0.42
L36G | -0.916 ± 0.12

Variant | abundance fitness
L36Y | -0.858 ± 0.23
L36S | -0.687 ± 0.13
L36H | -0.569 ± 0.22
L36C | -0.165 ± 0.16
L36T | -0.264 ± 0.17
L36Q | -0.545 ± 0.18
L36V | -0.173 ± 0.089
L36W | -0.696 ± 0.15
L36P | -0.711 ± 0.22
L36N | -0.935 ± 0.43
L36R | -0.881 ± 0.13
L36A | -0.601 ± 0.12
L36D | -0.643 ± 0.3
L36M | -0.184 ± 0.18
A33L | -0.693 ± 0.17
A33S | -0.115 ± 0.12
A33E | -0.905 ± 0.3
A33D | -0.938 ± 0.3
A33Y | -0.692 ± 0.25
A33V | -0.786 ± 0.17
A33T | -0.557 ± 0.28
A33W | -0.483 ± 0.19
A33R | -0.992 ± 0.18
A33P | -0.997 ± 0.42

Variant | abundance fitness
A33C | -0.295 ± 0.16
A33H | -0.925 ± 0.38
A33G | -0.375 ± 0.092
A33Q | -0.989 ± 0.38
A33N | -0.897 ± 0.35
Q22I | -0.38 ± 0.25
Q22M | -0.249 ± 0.21
Q22W | -0.383 ± 0.17
Q22K | -0.103 ± 0.21
Q22Y | -0.641 ± 0.35
Q22P | -0.133 ± 0.18
Q22E | 0.024 ± 0.16
Q22N | -0.285 ± 0.27
Q22F | -0.585 ± 0.38
Q22D | -0.081 ± 0.16
Q22H | -0.251 ± 0.24
Q22V | -0.324 ± 0.12
Q22T | -0.17 ± 0.16
Q22A | -0.033 ± 0.12
Q22G | 0.033 ± 0.1
Q22R | -0.32 ± 0.12
Q22L | -0.437 ± 0.13
Q22S | -0.087 ± 0.12
